A short description of the series: yeast display, Sf9 membrane polyspecificity reagent, FACS + sequencing; frameworks hold sequencing errors. In short, it runs like this: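 A nanobody's polyreactivity label depends on the gate it was sorted from. Yeast display cells were stained with 10% biotinylated, detergent-solubilized Sf9 membrane reagent for 1 hour at 4 °C, enriched on streptavidin microbeads and sorted by FACS. The low and high (top ~1%) gates were set on anti-HA fluorescence for expression and streptavidin fluorescence for reagent binding.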
Regarding “QVQLVESAVGLVQAGVSLRLSSAASGFIYYAYALGWYRQAPGKERELVAGISDSGASTYADSVKGRFTISRDNAKNTVYLQMNSLKPEDTAVYYCATTGYLSTKDYDEYGYWGQGTQVTVSS”, the “polyreactivity (PSR sort gate)” value was “low polyreactivity”.
In the case of “QVQLVESCGDLVQAGASLRLSCAASGRIFVYYAMGWYRQAPGKERELVALITSLGSTNYSDSVKGRFTISRDNGKNCVYLQMNSLKPEDTAVYYCAAEWEYYGFDYWGQGTQVTVSS” it was “low polyreactivity”.
As for “QVQLVESCGGIVQAGGSLRLSCAASGRIFGENAMGWYRQEPGKEREFVAVISISDASTYYADSVKGRFTISRDNAKNTVFFQMNSLKPEDTAVYYCAAEGPDSYSMDYWGQGTQVTVSS”, the “polyreactivity (PSR sort gate)” value is given as “low polyreactivity”.
With “QVQLVESCGGLLQAGGSLPLSCPASGSISSYYAMGWYRQAPGKERELVASITSGASTNYADSVKGRFTISRDNAKNTVYLQMNSLKPEDTAVYYCAAYVVTYYYGTGYYSYDYWGQGSQVTVSS” the entry was “low polyreactivity”.
In the case of “QVQLVESCGGLVKAGGSLRLSCDASGSTFYNNAMGWYRQAPGKERELVAVITSGGGSTYYADSVKGRFTISRDNAKNTVYLQMNSLKPEDTAVYYCAAKRPFYKYLWLDVRGNYWGQGTQVTVSS” it was “low polyreactivity”; in that of “QVQLVESCGGLVQAGCSLRLSCAASGRTFAYNAMGWYRQAPGKERELVADITSGGSTYYADSVKGRFTISRDNAKNTVYLQMNSLKPEDTAVYYCAAYPQFWYWDYNYWGQGTQVTVSS”, “high polyreactivity”.
With “QVQLVESCGGLVQAGCSLRLSCAASGRTFVWYAMGWNRQAPGKERELVAAITLSGGSTYYADSVKGRFTISRDNAKNTVFLQMNSLIPEDTAVYYCAADGTYRPEDYDYWGQGTQVTVSS” the entry was “low polyreactivity”; with “QVQLVESCGGLVQAGGSLRISCAASGLTIRYYAMGWYRHAPWKERELVAAISWSGGSTYYADSVKGRFTISRDNAKNTVYLLMNILKPEDTAVYYCNTVGRSSSLSVFLIGYGYWGQGTQVNVSS”, “high polyreactivity”; with “QVQLVESCGGLVQAGGSLRLICAASGRTFYHNAMGWYRQAPGKERELVATINSGGSTYAESVKGRFTISRDNAKNTVYFQMNSLKPEDTAVYYCAATFWSRSRFYYRYDYWGQGTQVTVSS”, “high polyreactivity”.
On to “QVQLVESCGGLVQAGGSLRLSCAASGFIFFANTMGWYRQAPGKERELVAAITSDGSTYYADSVKGRFTISRDNAKNTVYLQMNSLKPEDTAVYYCNAQSNYADLAYWNDYWGQGTKVTVSS”, for which the “polyreactivity (PSR sort gate)” value was “low polyreactivity”.
With “QVQLVESCGGLVQAGGSLRLSCAASGFIFWCYTMGWYIQAPGKERELVAAITGSGGSTYYADSVKGRFTISRDNAKNTVNFQMNSLKPEDTAVYYCNAVSAYKWEYYYWGQGTLVTVSS” the entry was “high polyreactivity”; with “QVQLVESCGGLVQAGGSLRLSCAASGGTFGPNAMGWYRQAPGKERELVARISTSGGSTTYYADSVKGRFTISRDNAKNTFYLHMNSLKPEDTAVYYCAADYKPYYRRRYDYWGQGTQVTVSS”, “low polyreactivity”.
As to “QVQLVESCGGLVQAGGSLRLSCAASGIIFEGNTLGWYRQAPGKEREFVAAISRNGGSTSYADSVKGRFTISRDNAKNTVYLQINSLKPEDTAVYYCAADVESFWGWRYEYWGQGTQVTVSS”, the “polyreactivity (PSR sort gate)” value is “low polyreactivity”.
For “QVQLVESCGGLVQAGGSLRLSCAASGITFFGYDMGWYRQAPWKEWELVAAITSTGRTYYADSVKGRFTISRDNAKKTDYLQMNSLTPEDTAVYYCNAARYPRSWYYKLDYWGQGTQVTVSS”, the “polyreactivity (PSR sort gate)” value was “high polyreactivity”.
With “QVQLVESCGGLVQAGGSLRLSCAASGLIFPVYAMGWYRQAPGKEREFVASIWRGGTTYYADSVKGRFTISRDNEKNTVYLQMNSLKPEDTAVYYCAARDYPRGLVFPFTKYDYWGQGTQVTVSS” the entry was “high polyreactivity”.
With “QVQLVESCGGLVQAGGSLRLSCAASGLTFYQNDMGWYRQAPGKERELVAAITLSGDITYYADSVKGRFTISRDNAKNTVYLQMNSLKPEDTAVYYCAADGYLLYVQHPNGRRYDYWGQGTQVTVSS” the entry was “low polyreactivity”; with “QVQLVESCGGLVQAGGSLRLSCAASGRIFSYNPMGWYRQAPGKERELVATITSGDSTNYADSVKGRFTISRDNSKNSVYLQMNSLKQEDTAVYYCATDIYGLPVDYWGQGTQVSVSS”, “low polyreactivity”; with “QVQLVESCGGLVQAGGSLRLSCAASGRTFGRNAMGWYRQAPGEREMVAVISRGGSTYYADSVKGRFTISRDNAKNTVYLQMNSLKPEDTAVYYCNADTVYTRTAPYDYWGQGTQVTVSS”, “low polyreactivity”.
With “QVQLVESCGGLVQAGGSLRLSCAASGRTFGYYAMGWYRQAPGKEREFVAAITAGGGSTYYADSVKGRFTISRDNAKNTVYLQMNSLKPEDTAVYYCAKRDYWGQGTQVTVSS” the entry was “high polyreactivity”; with “QVQLVESCGGLVQAGGSLRLSCAASGRTFVTYAMGWYRQAPGKERELVAAISASGGSTYYADSVKGRFTISRDNAKNTVYFQMNSLKPEDTAVYYCAKTYFLATPYGYWGQGTQVTVSS”, “low polyreactivity”.
Take “QVQLVESCGGLVQAGGSLRLSCAASGSIFGYNDMGWYRQAPGKERELVATLTWGGGRTRYADSVKGRFTISRDNAKNTVYLQMNSLIPEDTAVDYCAADKRSYSYVRPPRNHEDYWGQGTQVTVSS”: the “polyreactivity (PSR sort gate)” value is given as “low polyreactivity”.
With “QVQLVESCGGLVQAGGSLRLSCAASGSISFYAMGWYRQAPGQERELVAAITTSGGRTYYADSVKGRFTISRDNAKNTVYLQMNSLKPEDTAVYYCAQQGWYYSNRDGYRWYDYWGQGTQVTVSS” the entry was “high polyreactivity”; with “QVQLVESCGGLVQAGGSLRLSCAASGSISYYYAMGWYRQAPGKERELVAAITRTGTTNYADSVKGRFTISRDNAKNTVYLQMNSLKPEDTAVYYCAKRSTGRLQSYNYWGQGNQVTVSS”, “low polyreactivity”; with “QVQLVESCGGLVQAGGSLRLSCAASGSTFLVNAMGWYRPAPGKERELVAASSRGGGSTYYADSVKGRFTISRDKAKNTVYLQMNSLKPEDTAVYYCNARKWTIYGAHYYWGQGTQVTVSS”, “high polyreactivity”.
Take “QVQLVESCGGLVQAGGSLRLSCAASGSTLATYAMGWYRQAPWKERELDAVITRGGRTYYADSVKGRFTISRDNAKNTVYLQMNSLKPEDTAVFYCNATRAGENPDGGDEYWGQGTQVTVSS”: the “polyreactivity (PSR sort gate)” value is “high polyreactivity”.
Regarding “QVQLVESCGGLVQAGGSLRLSCAASRSTFVKYTMGWYRQAPGKERELVATITWSGGSTYYADSVKGRFTISRDNAKNTVYLQLMSLKPEDTAVYYGAIDSGVYRTYQGRWYYYTDFYWGQGTQVTVSS”, the “polyreactivity (PSR sort gate)” value is given as “low polyreactivity”.
In the case of “QVQLVESCGGLVQAGGSLRLSCAATGRIFAGYVMGWYRPAHGKERELVAAISWRGGRTYYADSVKGRFTISRDNAKNTVYLQMISLKPEDTAVYYCNAPYAVGNPADDYWGQGTQVTVSS” it was “high polyreactivity”; in that of “QVQLVESCGGLVQAGGSLRLSCDASGSIFIKKTMGWYRQAPGKEREMVAAISWSGGSTYYADSVKGRFTISRDNAKNTVYLQMNSLKPEDTAVYYCNAYYFWRTWFDTYDYWGQGTQVTVSS”, “high polyreactivity”.
In the case of “QVQLVESCGGLVQAGGSLRLSSAASGSIFEYNAMGWYRQEPGKERELVGAITSTDSTYADSVKGRFTISRDNAKNTVYLQMNSLKPEDTAVYYCAAEDVIYYLTGQWREYDYWGQGTQVTVSS” it was “low polyreactivity”; in that of “QVQLVESCVVLVQAGGSLRLSCAASGSIFGYYAMGWYRQAPGKERELVAAISDGGTITYYADSVKGRFTISRDHAKNTVYLQMNSLKPEVTAVYYCAARSPPRYYEHRFYYWGQGTQVTVSS”, “high polyreactivity”.
With “QVQLVESGAGIVQAGGSLRLSCAASGRTFLDYTMGWYRQAPGKERELVAAIRTSAGSTYYADSVKGRFTISRDNAKKTVYLQLNSLKPEDTAVYYCAAVYYVHYYYSYDYWGQGTQVTVSS” the entry was “low polyreactivity”; with “QVQLVESGAGLFQAGGSLRLSCAASGRIFNQYGMAWYRQAPGKERELVAAIRSGDSTNYADSVKGRFTISRDNAKNTVFLQMNSLKPEVTAVYYCARDRPGDYDGYDYCGQGTQVTVSS”, “low polyreactivity”; with “QVQLVESGAGLFQAGGSLRLSCAASGRTFVKNAMAWYRQAPGKERELVAAISTSGGRTYYADSVKGRFTISRDNAKKTVYLQMNSLKPEDTAVYYCGAVLYATRPVYGFDSCGQGTQVTVSS”, “high polyreactivity”.
“QVQLVESGAGLVEAGASLRLSCAASGSNFRINAMGLYRQAPGKERELVAAITASGGSTYADSVKGRFTISRDNAKNTVYLQMNSLKPEDTAVYDCAARYFPRHRYYFWGQVTQVTVSS”: the “polyreactivity (PSR sort gate)” value was “high polyreactivity”.
With “QVQLVESGAGLVHAGGSLRLSCAASGSIFEGYAMGWYRQAPGKERELVARITSDDDSTYYADSVKGRFTNSRDTAKNTVYLQMYSLKPEDTAVFYCNADYYWTTLAMDSWGQGTQVTVSS”, the “polyreactivity (PSR sort gate)” value is “low polyreactivity”.
With “QVQLVESGAGLVHAGGSLRLSCASSGRTFAKYAMGWYRQAPGKERELVAAISGRSGSTYYADSVKGRFTISRDNPKNTVYLQMNSLKPEDTAVYYCAASGGSRYDWVQGTQVTVSS” the entry was “high polyreactivity”; with “QVQLVESGAGLVMAGGSLRLSCAASGRTISIYAMGWYRQAPGKERQLVAAISQSSSITYYADSVKGRFTLSRDNANNTVYLQMISLKPEDTACYYCNAVVLRYQGSWLEYWGQGTQVTVSS”, “low polyreactivity”; with “QVQLVESGAGLVQAGCRLRLSCASSGIIFSPNAIGWYRQAPGKERELVAAISKRGGSTYYADSVKGRFTISRDNAKNTVYLQLHSLKQEDTAVYYCAKRQQQSSGYDYWGQGTQVTVSS”, “high polyreactivity”.
With “QVQLVESGAGLVQAGGRLRLRCDASGFIFRYYAMGWYRQAPGKERELVAAISESGASTYYADSVKGRFTISRDNAKNTVYLQMNSLKPEDTAVYYCAAKPRKSGPYYFYDLNYWGQGTQVTVSS” the entry was “high polyreactivity”; with “QVQLVESGAGLVQAGGRLRLSCADSGYIFKSYAIGWYRQAPGKEREFVAAISWSGGSTYADSVKGRFTISRDNAKNTVYLQMNSLKPEDTAVYSCAAVDYYYYGVYSSWYEYWGQGTQVTVSS”, “low polyreactivity”.
For “QVQLVESGAGLVQAGGRLRLSCAPSGSTFIYNAMGWYRQAPGKERELVASITGGTSTNYADSVKGRFTISRDNAKNTVYLQMNSLKPEDTAVYYCAAVWVWGEYDYWGQGTQVTVSS”, the “polyreactivity (PSR sort gate)” value is given as “low polyreactivity”.

The values above are taken from the nanobody polyreactivity screen of Harvey et al. (2022).
